assay: soluble fraction after stress (log2 fold change); higher = more stays soluble; pooled small domains, quantitative proteomics; settings: stress: pH 4
Outline: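 Custom libraries of small protein domains were pooled and exposed to pH 4. High-throughput quantitative proteomics then measured the log2 fold change in the amount of each domain still soluble, with higher values meaning more stayed soluble. This soluble-fraction fold change stands for aggregation propensity.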

Row | Sequence | soluble fraction (log2)
1 | HMKELLTKQQREEILETVKTKTPKDFGYTAEHWTTGFLGKWIEEHYEVEYKSKTSLYLVFKKASFTYHKPG | 0.0606
2 | HMGTITKRTNPSGAVVWRAQIRINKADMPTYSESKTFSKKSLATEWLKRREAEIEANPDLIL | ≥ 0.43
3 | HMDFTMSEIQTAMAALPRGYRTVVQLYLVDGYSHKEIAEMLGVDVNTSKSQLSRGRKQLQAFLAAMS | -0.602
4 | HMSPQIDYFDDEELDVYRQIAPEAYTDEQIEVFRDILYTLRPEEVEEWLISLEKREINLPLILRQEAIELI | 0.156
5 | HMGTSRVQSILFDQSQWTINRAVHWLNTHHFISTKIDKTDKYLRFRQFDPNPDSHHATKRTSQGITFILE | ≥ 0.43
6 | HMPDLSGEEQQIVDILAQRGNLQINTLVVETDIPVHKMNAILFELEMKGVVRVLAGGMYQLL | -0.561
7 | HMGQMGHAVVAKTDLAVGTPLTRDLVAVREVPVEWLHSSAITPEQFERAAGAVLAQPARGGEPLVWSQLEE | -0.201
8 | HMKFGETLIDLRKRNGLTQEELAAKLYVTRQAVSRWERGEVTPGIDMLKLIANVLNEPVAHLLDW | -0.435
9 | HMSPSTNKTFSFSKENISIGQTVFIKKLNQNATVLTLPNKSNQLQVQFGVITMNVKLEDLALPTN | -0.0832
10 | HMNNLGSKIKELRIAENLTQEKLAEELNVSFQSISRWENGISTPDISLIPAIARFFGVSTDYLFGLQD | -1.03
11 | HMAADDGSARAEQLREMYSLISGLDKLDKAIILMWLDERSYDEIAEVTGFTRNNVATRLHRIKSRLARQSN | -1.19
12 | HMEALQKVSINYYDEGAGKQIAEVPLEVGAGDTEIALAVINKYMPAEYNLVSTDYQIRGGYVYVSVTPA | -0.215
13 | HMAPELRSDAQMRRLWALAKENGLDEVGFRAFISDATGREVESTKSLTATEAHRLIEELEAP | -0.758
14 | HMLLSFYGTYGNVKLTGKELEDLQKEFPFDYQARIDRLSAYMESSGRKYHSHFATIRSWAQDDAKKN | 0.173
15 | HMGELTSILVATKQIEPGETLSSSNTQVKSWISDLIPEGAITNPESVMGRTVSSVIGVGMPVVSLHLR | 0.0354
16 | HMPTYEEAKTYLKAAFEHIVAAGRDVGELVEFAFAKSGDAVAPYLRRFLSDVHEGRITIQGLTESAKLAV | -0.463
17 | HMDEYTREQFVADMEEGRVREVTIHPNSEVPTGYIRVELANGADMKLYVTDIVEAEELVRSYGFDPPVRDV | -0.56
18 | HMADVIKLVNTSVLNVRSGAGINYSKIGSLTQGTKVNIISESNGWSKINYNGKIGYISSQYVSEVS | 0.324
19 | HMGGQEEALNRLVLRELLGTLEKKERDLIVRRYFYDQTQTKIAEALGISQVQVSRMEKRILKKMREGF | -0.833
20 | HMERFLENAIPVLGETGLDIKSATEDFENALIRQALHLSGGNKNRAATLLGLKRTTFVEMLKRKSL | -0.398
21 | HMQYALEDDLDSAIKLLTGKGLSGTVAWGWSDTYINVGKKSYSMEFIAKMLLRLGEGSRVTIQVDPA | -1.28
22 | HMDPTVEENKLNPRDLLIIQRVKEGRTNKEIAEELNVAEITVKKQLSSLYQRYKVHNRNQLLLALD | 0.245
23 | HMLSSNEIKEIFALFDKSNRGQVATSELGTLVRALNLNPTETEITDMQSKVDPKGQGSFTLDVLEKVVQD | -0.929
24 | HMVNPIDFYLLFRTELQRLAEHPITVDRLTEVTGLNKLQVLDWLKRAEQDGLVKKLNRPTRYQLN | -0.536
25 | HMDFQTDVFISRFAELKKESGETNKDLQDVFELSLSALINYQTGKRIPDIAFLHKLAQHFGVSADYLLGLS | -0.6
26 | HMQKEIKVPDVANMALSEAVEKLQNEGFKVADEQKEVSSDEIEEGKVVKTSPVAGTKKTKGSEITIYISSG | 0.22
27 | HMSGTYIATVEAGSLDIYKSMTSNETIGKASRGDVFQILEDMGSGYARVSYNDVEGYMSIKTGDASIEEL | -1.83
28 | HMKGALQIAIEEGFNWNLDKKYWNIVQSTVIAKRLGLKTTSGLKEAIEGMGGEYKRTKKARGYLVPTFKD | 0.354

Row | Sequence | soluble fraction (log2)
29 | HMKSNESAELGERMLNKALLALHTDSSKISDTQWQKLLRDYGAKNKQEILTDIGLGKRLNVMVAHQLMAMG | 0.0391
30 | HMGGEIGSGKNGYVAFYKGKKVDVKADSMYGAQKTAAKYFNAKKEYDVNVVLAEVDGKQYVQS | 0.151
31 | HMGRENGTVKWFNTSKGFGFITRDDGGDVFVHFRSIQGEGHRALQEGQRVSYVVANRDKGLQAEDVTILN | -0.107
32 | HMRDSLVGLEGVVVREVDDETLAGKVQIGSMEWSARSESGRIPAGRRVVVLRAEGVHIVVKEV | -0.121
33 | HMPLSLESVSEGGRNDTAARIAGYLIAKGLNVDFARFFLQSWNTKNKPPLDDTEIDTIVNSIMKTHERKNQ | -0.476
34 | HMAGPAGASEVANARDGDDETPLHMAARGGYPGIVRMLLAAGAKADAKSAAGLFPWNYAEDGSELHALLPR | -0.0731
35 | HMHGSSVEIPNIYGLPASEAVQLLDKADLRYEVIDSVYTTEVPKGAVYDLSPKAGSRVKAGRIIFLTLNA | -0.075
36 | HMISIKEAVFPFSRFPGVDTLLGPEMKSTGEVMGLADNFGHAYAKSQIASGSKLPESGTLFVSVKNSD | 0.0851
37 | HMNMMIIHVNGEKYSFQEPITISELILKLELDSRKIAIEYNLEILPRSLFEITSIKNGDKIEIVHFI | -0.892
38 | HMASDQGAGALREVSAFFEKHGRVPDPDAVDHDEMRLGSIWASIKSAPTDQMRLEDRFGLLD | -0.613
39 | HMNILKKDKRLWDENNLNKPLLFELLENYDKEIFELLLTDKDIKAKFFVQAGESYVFKYDDFRFAIEQN | -1.75
40 | HMSKNTFIGNIDDKELYVGSGRYGPFMLYDGKFTNITRYLSDESKELTDITIDDYSKIVNNARPK | -1.5
41 | HMFDEVKDAARRLAALLDQAGGTLTLNDKSAPEEVAALTGMSKKVFKRALGHLMSRSEVVVADGRITKKD | -0.196
42 | HMVADLSGVGDKDIIVDQFIYHEVLPKETIYSIVKSFNVTSEDLNKNNPFLRANGLRIGQVIRIPLKI | -0.224
43 | HMNNLPDFIKQLRKENNLTQEYVASEIGVSRPTYEQIEKGKRELTISEAEKLAKIFNIPLENFLQGKKGV | -0.0996
44 | HMARGTRTRAKLLAAAEVVFARYGYTEASIERITEEAGVGQGTFYLYFASKLEIFEELVDDLNR | -1.07
45 | HMDSAVLQKHLVKLIELHAPIKARNLAKILADEFGKHVDRSAVNSALYSLKAERKVEVNSSYEWSLD | 0.252
46 | HMKNYYEVLGVPRDAAAPDIKRAFRKLAKQFHPDHNPGDAKAEERFKLVSQAYDVLGDEEKRKLYDQFGE | 0.254
47 | HMSLGTDVVPDFTGKGIKEAKTEFAAYSEGELYIIGEGEKVKEQFPLPGEKVNKNSDLILYV | 0.0276
48 | HMNREEKKALTRRQIIDVATRLFRQHGIHNTDLKTIATEAGVSVVTFYKYFDSKEALIGTIAAEQ | -0.23
49 | HMSRSKLNRLDKIKKMLIAQTGISIKEFSASLNVSEITIRRDLNLLEEQGFIRLVNGVAIYRM | -0.315
50 | HMNEFSYLSELGSEKGDLIKGLQLVQSREGYVSDDAIRAISKHFSIAEAEVEGVLTFYAQFK | -1.25
51 | HMTNYREILRLRSLGLNHSRIAESMGISRPTVIAALQRAQTQELNWQAAESLSDIDLAQRLNP | -0.2
52 | HMDESLLDYALREIKARIQNGTYPPGTKLSTQEISDSLGISRTPVVAAINRLVAQGVAEAIPRRGTIVAR | 0.015
53 | HMELIELTVTEEFEMARLDQFLAGHLTQSRTYIQKLIKAGQITINGNLITRVKVPVHYGDFILINIPDPE | -1.6
54 | HMSKYLAFTVKKNDELLPFIEKALNGISHTKAKAILANGGAMVNKNTITQYNYPLTPGMTVEISRH | 0.187
55 | HMRFNIGNVIEHYKLNTEDLAKVLFPTVKYPKQAFDRVLKGEANLDVIQLERLANHIGVLVTDLF | -0.659
